Measured values as given in FireProtDB.
Values joined by “and” are separate entries in the source; they are usually repeats but may differ in a detail not shown here. Identical values can stand only once.

Conditions: whole UniProt chain shown
[1] = Bos taurus, pH 2, 35 °C, Urea, NMR, Unknown, reversible: no
[2] = Bos taurus, pH 2.2, 25 °C, GdnHCl, CD, Sodium cacodylate 50 mM, NaCl 50 mM
[3] = Bos taurus, pH 3, Thermal, DSC, Tris-HCl 10 mM
[4] = Bos taurus, pH 4.2, Thermal, DSC, Tris-HCl 10 mM
[5] = Bos taurus, pH 5.2, Thermal, DSC, Tris-HCl 10 mM
[6] = Bos taurus, pH 6.2, Thermal, DSC, citrate 10 mM
[7] = Bos taurus, pH 6.3, 25 °C, GdnHCl, CD, Sodium acetate 100 mM, CaCl2 2 mM, transition: 3
[8] = Bos taurus, pH 6.3, 25 °C, GdnHCl, CD, Sodium acetate 100 mM, CaCl2 2 mM
[9] = Bos taurus, pH 6.3, 25 °C, Thermal, CD, imidazole-HCl 40 mM
[10] = Bos taurus, pH 7, 4.5 °C, GdnHCl, CD, cacodylate 50 mM, NaCl 0.1 M
[11] = Bos taurus, pH 7, 25 °C, GdnHCl, CD, sodium cacodylate 50 mM, NaCl 50 mM
[12] = Bos taurus, pH 7, Thermal, CD, C2H6AsNaO2 50 mM, NaCl 50 mM
[13] = Bos taurus, pH 7.5, Thermal, DSC, Tris-HCl 10 mM, CaCl2 260 micro M
[14] = Bos taurus, pH 8, 25 °C, GdnHCl, CD, Tris-HCl 20 mM
[15] = Bos taurus, pH 8, 25 °C, Thermal, CD, borate 10 mM, NaCl 0.01-1.0 M
[16] = Bos taurus, pH 8, 25 °C, Thermal, DSC, Tris-HCl 10 mM, reversible: yes
[17] = Bos taurus, pH 8, Thermal, DSC, Tris-HCl 5 mM
[18] = Bos taurus, pH 8, Thermal, DSC, Tris-HCl 10mM, reversible: yes
[19] = Bos taurus, pH 8, Thermal, DSC, borate 10 mM, NaCl 0.2 M, reversible: yes (>95%)
[20] = Bos taurus, pH 7.2, Thermal, DSC, phosphate 20 mM, reversible: yes (partial)
[21] = Bos taurus, pH 7.4, Thermal, DSC, potassium phosphate 20 mM, reversible: Yes (65%)
[22] = Bacillus subtilis (strain 168), pH 7, Thermal, CD, Potassium phosphate 50 mM, reversible: yes
[23] = Bos taurus, pH 7, Thermal, DSC, Potassium phosphate 67 mM, MgCl2 1 mM
[24] = Bos taurus, pH 6.7, Thermal, DSC, phosphate 10 mM, MgCl2 0.5 mM, reversible: No

B1: Alpha-lactalbumin wild type, P00711 (protein)
chain: MMSFVSLLLVGILFHATQAEQLTKCEVFRELKDLKGYGGVSLPEWVCTTFHTSGYDTQAIVQNNDSTEYGLFQINNKIWCKDDQNPHSSNICNISCDKFLDDDLTDDIMCVKKILDKVGINYWLAHKALCSEKLDQWLCEKL
denaturant m value [1]: 0.33 kcal/mol/M | denaturant midpoint (higher = more stable) [1]: 4.45 M | unfolding free energy [1]: 1.46 kcal/mol | denaturant m value [2]: 0.76 kcal/mol/M | denaturant midpoint (higher = more stable) [2]: 3.16 M | unfolding free energy [2]: 2.41 kcal/mol | Tm [3]: 29.6 °C | heat capacity change of unfolding [3]: 0.93 kcal/mol/K | unfolding enthalpy (calorimetric) [3]: 36.1 kcal/mol | Tm [4]: 56.9 °C | heat capacity change of unfolding [4]: 1.17 kcal/mol/K | unfolding enthalpy (calorimetric) [4]: 64.5 kcal/mol | Tm [5]: 62.8 °C | heat capacity change of unfolding [5]: 1.26 kcal/mol/K | unfolding enthalpy (calorimetric) [5]: 71.9 kcal/mol | Tm [6]: 51.2 °C | heat capacity change of unfolding [6]: 1.61 kcal/mol/K | unfolding enthalpy (calorimetric) [6]: 59.1 kcal/mol | unfolding enthalpy (van 't Hoff) [6]: 61.5 kcal/mol | denaturant m value [7]: 1.85 kcal/mol/M | unfolding free energy [7]: 4.61 kcal/mol | denaturant m value [8]: 2.6 kcal/mol/M | unfolding free energy [8]: 6.21 kcal/mol | heat capacity change of unfolding [9]: 0.96 kcal/mol/K | unfolding enthalpy (van 't Hoff) [9]: 31.1 kcal/mol | unfolding free energy (Bos taurus, pH 6.65, 25 °C, GdnHCl, CD, potassium phosphate 0.01-0.03 M, KCl 0.1 M, reversible: yes): 6.5 kcal/mol | heat capacity change of unfolding (Bos taurus, pH 6.8, 25 °C, Thermal, CD, phosphate 10-20 mM, KCl 0.1 M): 1.49 kcal/mol/K | denaturant m value [10]: 2.27 kcal/mol/M | unfolding free energy [10]: 3.66 kcal/mol | denaturant m value (Bos taurus, pH 7, 25 °C, GdnHCl, CD, sodium cacodylate 50 mM, NaCl 50 mM, transition: 3): 1.79 kcal/mol/M and 0.64 kcal/mol/M | denaturant m value [11]: 2.43 kcal/mol/M | unfolding free energy [11]: 7.29 kcal/mol | Tm [12]: 25 °C | heat capacity change of unfolding [12]: 1.1 kcal/mol/K | unfolding enthalpy (van 't Hoff) [12]: 38 kcal/mol | Tm [13]: 64.2 °C | unfolding enthalpy (calorimetric) [13]: 72.2 kcal/mol | denaturant m value [14]: 0.84 kcal/mol/M | denaturant midpoint (higher = more stable) [14]: 2.46 M | unfolding free energy [14]: 2.07 kcal/mol | heat capacity change of unfolding [15]: 1.18 kcal/mol/K | unfolding enthalpy (van 't Hoff) [15]: 44.7 kcal/mol | heat capacity change of unfolding [16]: 1.03 kcal/mol/K | unfolding free energy [16]: 5.02 kcal/mol and 3.59 kcal/mol | Tm [17]: 28.2 °C | heat capacity change of unfolding [17]: 1.48 kcal/mol/K | unfolding enthalpy (calorimetric) [17]: 35.2 kcal/mol | Tm [18]: 55.2 °C | unfolding enthalpy (calorimetric) [18]: 55 kcal/mol | Tm [19]: 71.3 °C | heat capacity change of unfolding [19]: 1.6 kcal/mol/K | unfolding enthalpy (calorimetric) [19]: 80 kcal/mol | unfolding enthalpy (van 't Hoff) [19]: 84 kcal/mol

B2: Malate dehydrogenase wild type, P80040 (protein)
chain: MRKKISIIGAGFVGSTTAHWLAAKELGDIVLLDFVEGVPQGKALDLYEASPIEGFDVRVTGTNNYADTANSDVIVVTSGAPRKPGMSREDLIKVNADITRACISQAAPLSPNAVIIMVNNPLDAMTYLAAEVSGFPKERVIGQAGVLDAARYRTFIAMEAGVSVEDVQAMLMGGHGDEMVPLPRFSTISGIPVSEFIAPDRLAQIVERTRKGGGEIVNLLKTGSAYYAPAAATAQMVEAVLKDKKRVMPVAAYLTGQYGLNDIYFGVPVILGAGGVEKILELPLNEEEMALLNASAKAVRATLDTLKSL
Tm (Chloroflexus aurantiacus (strain ATCC 29366 / DSM 635 / J-10-fl), pH 7.5, Thermal, CD, potassium phosphate 10 mM, reversible: No): 67.8 °C

B3: Beta-glucanase wild type, K0A689 (protein)
chain: MKRVLLILVTGLFMSLFAVTSTASAQTGGSFFDPFNGYNSGFWQKADGYSNGNMFNCTWRANNVSMTSLGEMRLALTSPSYNKFDCGENRSVQTYGYGLYEVRMKPAKNTGIVSSFFTYTGPTDGTPWDEIDIEFLGKDTTKVQFNYYTNGAGNHEKIVDLGFDAANAYHTYAFDWQPNSIKWYVDGQLKHTATNQIPTTPGKIMMNLWNGTGVDEWLGSYNGVNPLYAHYDWVRYTKK
Tm (Bacillus tequilensis, pH 6.5, Thermal, Activity, phosphate buffer): 62 °C

B4: Alpha-crystallin A chain wild type, P02470 (protein)
chain: MDIAIQHPWFKRTLGPFYPSRLFDQFFGEGLFEYDLLPFLSSTISPYYRQSLFRTVLDSGISEVRSDRDKFVIFLDVKHFSPEDLTVKVQEDFVEIHGKHNERQDDHGYISREFHRRYRLPSNVDQSALSCSLSADGMLTFSGPKIPSGVDAGHSERAIPVSREEKPSSAPSS
unfolding free energy (Bos taurus, pH 5, 20 °C, Urea, Fluorescence, Sodium acetate 50 mM): 8.46 kcal/mol | Tm [20]: 45.6 °C | unfolding enthalpy (calorimetric) [20]: 98 kcal/mol | unfolding enthalpy (van 't Hoff) [20]: 91 kcal/mol | Tm [21]: 59.8 °C | heat capacity change of unfolding [21]: 1.36 kcal/mol/K | unfolding enthalpy (calorimetric) [21]: 80.3 kcal/mol | unfolding enthalpy (van 't Hoff) [21]: 78.6 kcal/mol

B5: NADP-dependent isopropanol dehydrogenase wild type, P25984 (protein)
chain: MKGFAMLGINKLGWIEKERPVAGSYDAIVRPLAVSPCTSDIHTVFEGALGDRKNMILGHEAVGEVVEVGSEVKDFKPGDRVIVPCTTPDWRSLEVQAGFQQHSNGMLAGWKFSNFKDGVFGEYFHVNDADMNLAILPKDMPLENAVMITDMMTTGFHGAELADIQMGSSVVVIGIGAVGLMGIAGAKLRGAGRIIGVGSRPICVEAAKFYGATDILNYKNGHIVDQVMKLTNGKGVDRVIMAGGGSETLSQAVSMVKPGGIISNINYHGSGDALLIPRVEWGCGMAHKTIKGGLCPGGRLRAEMLRDMVVYNRVDLSKLVTHVYHGFDHIEEALLLMKDKPKDLIKAVVIL
Tm (Clostridium beijerinckii, pH 6.8, Thermal, CD, Na/K phosphate 50 mM): 65.1 °C

B6: Phosphocarrier protein HPr wild type, P08877 (protein)
chain: MAQKTFKVTADSGIHARPATVLVQTASKYDADVNLEYNGKTVNLKSIMGVMSLGIAKGAEITISASGADENDALNALEETMKSEGLGE
denaturant midpoint (higher = more stable) (Bacillus subtilis (strain 168), pH 7, 30 °C, Urea, CD, Potassium phosphate 50 mM, reversible: yes): 3.93 M | Tm [22]: 73.6 °C and 77.5 °C | unfolding enthalpy (van 't Hoff) [22]: 59 kcal/mol and 63 kcal/mol

B7: Rhodopsin wild type, P02699 (protein)
chain: MNGTEGPNFYVPFSNKTGVVRSPFEAPQYYLAEPWQFSMLAAYMFLLIMLGFPINFLTLYVTVQHKKLRTPLNYILLNLAVADLFMVFGGFTTTLYTSLHGYFVFGPTGCNLEGFFATLGGEIALWSLVVLAIERYVVVCKPMSNFRFGENHAIMGVAFTWVMALACAAPPLVGWSRYIPEGMQCSCGIDYYTPHEETNNESFVIYMFVVHFIIPLIVIFFCYGQLVFTVKEAAAQQQESATTQKAEKEVTRMVIIMVIAFLICWLPYAGVAFYIFTHQGSDFGPIFMTIPAFFAKTSAVYNPVIYIMMNKQFRNCMVTTLCCGKNPLGDDEASTTVSKTETSQVAPA
Tm [23]: 71.7 °C | unfolding enthalpy (calorimetric) [23]: 172 kcal/mol

B8: Tubulin--tyrosine ligase wild type, P38584 (protein)
chain: MYTFVVRDENSSVYAEVSRLLLATGHWKRLRRDNPRFNLMLGERNRLPFGRLGHEPGLMQLVNYYRGADKLCRKASLVKLIKTSPELAESCTWFPESYVIYPTNLKTPVAPAQDGIHPPLHSSRTDEREFFLASYNRKKEEGEGNVWIAKSSAGAKGEGILISSDATELLDFIDNQGQVHVIQKYLERPLLLEPGHRKFDIRSWVLVDHQFNIYLYREGVLRTASEPYHMDNFQDKTCHLTNHCIQKEYSKNYGKYEEGNEMFFEAFNRYLTSALNITLESSILLQIKHIIRSCLMSVEPAISTKHLPYQSFQLFGFDFMVDEELKVWLIEVNGAPACAQKLYAELCQGIVDIAIASVFPPPDAEQQPPQPATFIKL
Tm [24]: 54.8 °C | unfolding enthalpy (calorimetric) [24]: 173 kcal/mol
